This assay addresses Human recombinant ADAM17 (human) (UniProt P78536).
UniProt P78536, sequence (P78536 18-824): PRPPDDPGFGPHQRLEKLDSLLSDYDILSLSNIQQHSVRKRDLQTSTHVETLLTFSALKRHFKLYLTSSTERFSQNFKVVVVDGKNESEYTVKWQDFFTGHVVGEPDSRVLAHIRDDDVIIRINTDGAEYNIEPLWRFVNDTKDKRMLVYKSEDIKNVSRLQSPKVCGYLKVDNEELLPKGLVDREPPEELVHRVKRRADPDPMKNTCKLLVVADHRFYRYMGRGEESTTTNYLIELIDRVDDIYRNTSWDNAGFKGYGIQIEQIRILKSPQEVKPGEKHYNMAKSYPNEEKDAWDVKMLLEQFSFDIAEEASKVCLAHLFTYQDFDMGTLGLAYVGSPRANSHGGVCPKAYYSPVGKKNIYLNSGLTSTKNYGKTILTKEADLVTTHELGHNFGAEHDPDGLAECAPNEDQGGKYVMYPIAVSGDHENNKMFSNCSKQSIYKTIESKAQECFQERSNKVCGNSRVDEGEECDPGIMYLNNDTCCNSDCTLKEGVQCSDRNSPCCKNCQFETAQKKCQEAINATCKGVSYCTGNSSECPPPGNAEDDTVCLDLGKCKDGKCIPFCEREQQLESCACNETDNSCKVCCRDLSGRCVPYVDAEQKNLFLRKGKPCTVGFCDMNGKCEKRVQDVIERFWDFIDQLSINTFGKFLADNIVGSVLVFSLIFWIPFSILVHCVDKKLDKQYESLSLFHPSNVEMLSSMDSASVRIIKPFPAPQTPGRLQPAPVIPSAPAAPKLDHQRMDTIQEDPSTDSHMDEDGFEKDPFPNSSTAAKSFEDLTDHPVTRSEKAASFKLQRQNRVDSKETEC

Regarding “Mca-KPLGL-Dpa-AR-NH2, fluorogenic ADAM17 substrate (peptide)”, the Km of the ADAM17-catalysed cleavage of the fluorogenic substrate (Lineweaver–Burk plot), control without E144 came to 580 µM and the Km of the ADAM17-catalysed cleavage of the fluorogenic substrate (Lineweaver–Burk plot), in the presence of 5 μM E144 turned out to be 20 µM.

For the origin of these results see paper PMC7037359.
